Results: US20200157194A1 (Regeneron, published 2020)
Changes are numbered by the printed parent chain.

B1: H4H6233P (antibody, human IgG4, V domains shown)
VH: QVQLVESGGGVVQPGRSLRLSCAASGFTFSSYGMHWVRQAPGKGLEWVAVIWYDGSNYYYAASVKGRFTISRDNSENTLYLQMNRLRAEDTAVYYCAREGTGSTEDYFDYWGQGTLVTVSS
VL: EIVLTQSPATLSLSPGERATLSCRASQSVSSFLAWYQQKPGQAPRLLIYDASNRATGIPVRFSGSGSGTDFTLTISSLEPEDFAVYYCQQRSNWPPYTFGQGTKLEIK
notes: H4H prefix = human IgG4 Fc
B2: H4H2897N (antibody, human IgG4, V domains shown)
VH: QVQLVESGGGVVQPGRSLRLSCAASGFTFTNYGMHWVRQAPGKGLEWVAAISYDGTNKYYADSVKGRFTISRDDSKNTLCLQMNSLRAEDTAVYYCAKEGTGEGFSFDYWGQGTLVTVSS
VL: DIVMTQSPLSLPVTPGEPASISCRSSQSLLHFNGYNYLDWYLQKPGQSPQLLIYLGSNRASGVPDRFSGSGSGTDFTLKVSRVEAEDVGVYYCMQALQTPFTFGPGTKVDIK
notes: H4H prefix = human IgG4 Fc
B3: H4H2895N (antibody, human IgG4, V domains shown)
VH: EVQLVESGGGLVQPGGSLRLSCAASGFTVSSNYMSWVRQAPGKGLEWVSVIYSGGNTYYADSVKGRFTISRHNSKNTLYLQMNSLRAEDTAVYYCARDLGIKSDYWGQGTLVTVSS
VL: EIVLTQSPDFQSVTPKEKVTITCRASQSIGTTLHWYQQKPDQSPKLLIKYVSQSLSGVPSRFSGSGSGTDFTLTINSLEAEDAATYYCHQSSSLPWTFGQGTKVEIK
notes: H4H prefix = human IgG4 Fc
B4: H4H6236P (antibody, human IgG4, V domains shown)
VH: QVQLVQSGAEVKKPGASVKVSCKVSGYTLTELSMHWVRQAPGKGLEWMGGFDPEDGETIYAQKFQGRVTMTEDTSTETAYMELSSLRSEDTAVYYCATDDYDILTDYPYNMDVWGQGTTVTVSS
VL: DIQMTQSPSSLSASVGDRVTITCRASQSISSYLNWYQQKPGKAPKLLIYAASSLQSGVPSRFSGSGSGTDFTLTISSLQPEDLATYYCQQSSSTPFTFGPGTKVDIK
notes: H4H prefix = human IgG4 Fc
B5: H4H6232P (antibody, human IgG4, V domains shown)
VH: B4 VH with V68L, E77D, D106S
VL: DIQMTQSPSSLSASVGDRVTITCRASQSINNYLNWYQQKPGKAPKLLIYAASSLQSGVPSRFSGSGSGTDFTLTISSLQPEDFGTYYCQQSDSTPFTFGPGTKVDIK
notes: H4H prefix = human IgG4 Fc
B6: H4H6243P (antibody, human IgG4, V domains shown)
VH: B4 VH with G66D, E77D, A97V, D102E, T105P, D106E
VL: B5 VL with N30S, N31T, S76R, G84A, D92H, S93I
notes: H4H prefix = human IgG4 Fc
B7: H4H2926N (antibody, human IgG4, V domains shown)
VH: EVQLVESGGGLVQTGRSLRLSCAASGFTFDDYAMNWVRQAPGKGLEWVSGISWNSGNIGYADSVKGRFTISRDNAKNSLYLQMNSLRAEDTALYYCVKYIGQQLVQDYFDYWGQGTLVTVSS
VL: DIQMTQSPSSLSASVGDRVTITCQASQDITNYLNWYQQRPGKAPKLLIYDAFNLERGVPSRFSGSGYGTYFTFTISSLQPEDIAIYYCQQYDNLPLTFGGGTKVEIE
notes: H4H prefix = human IgG4 Fc

Legend:
[1] = biological target: T1, recombinant human GREM1 (hGREM1-His; C-terminal 10His tagged, R&D, #5190-GR) (human, UniProt O60565 25-184); experiment: BLI Octet, mAb captured, 100 nM GREM1 + 5 uM heparin;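 also: octet Red96 biolayer interferometry at 25 °C, antibodies captured on anti-human IgG Fc biosensors, pH 7.4 HEPES buffer with 0.1 mg/mL BSA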
T1 construct: range 25-184; also called recombinant human GREM1 with a C-terminal decahistidine tag
T1 sequence: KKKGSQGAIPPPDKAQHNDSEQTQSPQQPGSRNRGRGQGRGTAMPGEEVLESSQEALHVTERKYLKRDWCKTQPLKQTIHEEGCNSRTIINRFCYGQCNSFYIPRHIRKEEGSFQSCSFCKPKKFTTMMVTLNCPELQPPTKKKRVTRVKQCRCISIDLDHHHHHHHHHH

[2] = biological target: T1, recombinant human GREM1 (hGREM1-His; …); experiment: BLI Octet, mAb captured, 100 nM GREM1;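 also: octet Red96 biolayer interferometry at 25 °C in pH 7.4 HEPES saline buffer, antibodies held on anti-human IgG Fc capture biosensors, then exposed to GREM1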
[3] = biological target: T1, recombinant human GREM1 (hGREM1-His; …); experiment: cell-based or functional assay
[4] = biological target: T2, human GREM1 (hGREM1-His; SEQ ID NO: 595) (human, UniProt O60565 25-184); experiment: SPR, Biacore T200, 25 C, mAb captured, hGREM1-His injected;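 also: Heparin-supplemented HBS-EP+ used as running buffer, association and dissociation phases followed, Kd computed as koff divided by kon and half-life derived from koff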
T2 construct: also called biotin-hGREM1-His; recombinant human GREM1 protein
T2 sequence: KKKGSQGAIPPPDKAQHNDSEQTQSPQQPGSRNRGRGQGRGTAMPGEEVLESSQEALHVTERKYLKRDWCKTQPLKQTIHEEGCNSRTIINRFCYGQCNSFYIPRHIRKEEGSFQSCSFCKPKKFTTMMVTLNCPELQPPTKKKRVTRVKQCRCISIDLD

[5] = biological target: T2, human GREM1 (hGREM1-His; SEQ ID NO: 595); experiment: competition ELISA, biotin-hGREM1-His (100 pM) binding to coated hBMP4
[6] = biological target: T2, human GREM1 (hGREM1-His; SEQ ID NO: 595); experiment: SPR, Biacore T200, 37 C, mAb captured, hGREM1-His injected;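 also: HBS-EP running buffer containing heparin, association and dissociation phases tracked, KD computed as koff over kon and half-life derived from koff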
[7] = biological target: T1, recombinant human GREM1 (hGREM1-His; …); experiment: cell-based or functional assay; remark: listed apart in the source
[8] = biological target: T1, recombinant human GREM1 (hGREM1-His; …); experiment: BLI Octet, mAb captured, 100 nM GREM1 without vs with 5 uM heparin;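 also: octet Red96 biolayer interferometry at 25 °C, antibodies captured on anti-human IgG Fc biosensors, association of GREM1 measured with versus without heparin in HEPES-buffered saline, pH 7.4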

Binder	Binding Signal with 30 sec Association [1] [nm]	Binding Signal with 300 sec Association [1] [nm]	Binding Signal with 30 sec Association [2] [nm]	Binding Signal with 300 sec Association [2] [nm]	IC50 [M], inhibition of hGREM1-His, W-20-17/BRE-luc luciferase (100 pM hBMP4, 10 nM hGREM1-His) [3] [M]	Kd [4] [nM]	koff [4] [s⁻¹]	kon [4] [M⁻¹ s⁻¹]	t1/2 [4] [min]	% blocked at maximum Ab tested (20 nM) [5] [%]	IC50 [5] [nM]	Kd [6] [nM]	koff [6] [s⁻¹]	kon [6] [M⁻¹ s⁻¹]	t1/2 [6] [min]	hGREM1-His Inhibition IC50, M; W-20-17 cell differentiation assay (alkaline phosphatase) [7] [nM]	Reduction in Signal from Heparin at 30 sec [8] [nm]	Reduction in Signal from Heparin at 300 sec [8] [nm]
B1	0.08	0.41	0.19	0.47	4.1e-10	1.88	0.000172	91300	67	66	0.69	3.26	0.000512	157000	23	23	0.11	0.06
B2	0.01	0.26	0.2	0.68	4.5e-10	148	0.00041	2770	28	73	0.042	28.8	0.00202	70300	6	18	0.19	0.42
B3	0.22	0.54	0.15	0.5	5.8e-10	0.778	0.000132	170000	88	94	0.036	1.23	0.000215	175000	54	1.9	-0.07	-0.04
B4	0.05	0.43	0.33	0.45	5.4e-10	2.99	0.000125	42000	92	95	< 0.025	2.63	0.000245	93000	47	3.9	0.28	0.02
B5	0.06	0.46	0.33	0.48	7.8e-10	1.25	9.6e-05	76800	120	93	< 0.025	1.73	0.000195	113000	59	4.5	0.27	0.02
B6	0	0.21	0.3	0.47	5.4e-10	11.3	0.000178	15800	65	92	< 0.025	68.7	0.000484	7050	24	5.9	0.3	0.26
B7	0.07	0.42	0.23	0.49	1.2e-09	5.52	0.000502	91000	23	93	0.052	11.1	0.0014	126000	8	13	0.16	0.07
